Assay results as given in US20220408730A1, “PLANT TREATMENT” (INSTITUTO SUPERIOR DE AGRONOMIA, priority 2019, published 2022).
Entries after “also recorded” stand apart in the source; their conditions may differ.

Columns and labels:
external fungi = test: Fungicides in vitro on potato dextrose agar Petri dishes; assay type: cell-based; details: PDA plus individual fungicides
P. chlamydospora = test: Pruning wound protection under real vineyard conditions, wounds brushed with P. chlamydospora spores; assay type: in vivo, grapevine; details: for fungi re-isolated in vitro from the treated wood: culture-dependent methods
Procedure: In an experiment designed as an attempt to protect pruning wounds from esca fungal infection, a couple of surprising observations were made when immediately after pruning under real vineyard conditions, the fresh wounds were brushed with 50 μl of water (control), or of Blad, the commercial fungicide Switch or copper oxychloride solutions (24 replicates for each treatment), and 24 h, 1 month and 2 months afterwards the pruning wounds were brushed with P. chlamydospora spore suspensions. […] On top of that, the diversity of fungi that could be re-isolated in vitro (using culture-dependent methods) from that wood was also lower. […] This remarks the efficient fungicide activity of the two chemicals on P. chlamyobspora, although this fungus seems to be less affected than other natural endophytes of the grapevine. The applicant's analyses of the mycobiome by metabarcoding using Illumina® next-generation sequencing (NGS) techniques detected only minor changes in some taxa composition and in colonization success of some endophytes in grapevine wood after a single copper application. The copper/systemic fungicides didn't change the mycobiome composition in major ways and didn't even directly advantage the pathogen.

P. cinnamomi = test: Potted young cork oak inoculated with P. cinnamomi, extension of root lesions; assay type: in vivo, Quercus suber; details: plants sprayed; for root lesion severity: compared with inoculated control
Procedure: In a separate experiment, potted young cork oak plants (Quercus suber) were inoculated with P. cinnamomi and incubated under greenhouse conditions. The plants were sprayed with potassium phosphonate, salicylic acid, Blad and other compounds/extracts under study. The severity of the infection was assessed by quantifying the extension of plant root lesions.

[1] = Early growth at bud break after application onto pruning wound; assay type: in vivo, grapevine; details: 50 μl onto the pruning wound, one treatment per plant
Procedure: The photos were taken at the same plant a couple of months later, at bud break. Compare with the natural development state of the vineyard in the background. Twenty-four replicates were prepared for each treatment.

Trichoderma gamsii = test: Root browning and necrotic lesions score in carrot roots; assay type: in vivo, carrot cv Nantes
Procedure: (§1) Twelve carrot seeds cv Nantes were sown in soil containing the different combinations of SLB described above, as well as in positive and negative controls, for a total of 12 treatments (see below). Four weeks after sowing, six mycelium plugs of Trichoderma gamsii were added to each treatment tests, with the exception of the ‘negative control’.
A combination of factors, in which the presence of Trichoderma gamsii was determinant, induced the presence of root browning and necrotic lesion, as shown in FIG. 32.
Carrot roots of each biological replicate, grown under different treatments, were examined to assess differences in the development of root browning and necrotic lesions.
(§2) Similarly to what described in section ‘Effects on the growth of nine-week-old carrots’, the same skopobiota-loaded bentochar treatments were tested also in combination with a weekly spray of Blad on carrot leaves. The tested Blad concentration was 2 mL Blad per L of water.

grapevine wood mycobiome = test: Grapevine wood mycobiome composition and networks after fungicide treatments (metabarcoding); assay type: in vivo, Vitis vinifera cv Cabernet Sauvignon; details: foliar application / spray
Text: Wood samples were carefully collected from grapevine rooted cuttings of Vitis vinifera cv Cabernet Sauvignon grown under greenhouse conditions, which underwent different inoculations and fungicide treatments and their mycobiomes identified by metabarcoding using Illumina® next-generation sequencing (NGS) techniques. The barplots represented in FIG. 2 show the relative abundances of grapevine wood taxa in plants subjected to different fungicide treatments and inoculation types.
FIG. 4 illustrates the effect of fungicide applications on the grapevine wood relative taxa abundance.
In FIG. 4, the differential heat tree matrix depicts the changes in taxa abundance between different fungicide treatments. The size of the individual nodes in the grey cladogram depicts the number of taxa identified at that taxonomic level. The smaller cladograms show pairwise comparisons between each treatment, with the colour illustrating the log2 fold change: a red node indicates a lower abundance of the taxon in the tissue group stated on the abscissa, than in the tissue group stated on the ordinate. A blue node indicates the opposite.
The networks presented in FIG. 5 show how Blad creates a different link among taxa, when compared with control and other fungicides.

[2] = system: Phaeomoniella chlamydospora; test: Relative abundance of P. chlamydospora in wood of potted grapevine cuttings (metabarcoding, greenhouse); assay type: in vivo, Vitis vinifera cv Cabernet Sauvignon; details: for relative abundances (%) of P. chlamydospora: fungicide treatment per column
Text: Wood samples were carefully collected from grapevine rooted cuttings of Vitis vinifera cv Cabernet Sauvignon grown under greenhouse conditions, which underwent different inoculations and fungicide treatments and their mycobiomes identified by metabarcoding using Illumina® next-generation sequencing (NGS) techniques.
On top, barplots grouped by ‘Inoculation’ type; bottom, barplots grouped by ‘Fungicide’ treatment.
In a subsequent experiment (see also below), potted vines were co-inoculated with P. chlamydospora and a skopobiota (spore suspensions from four fungal species naturally occurring in the grapevine microbiome).
C22 and Aureobasidium pullulans AU86. All fungi were maintained in Petri dishes with vents, on potato dextrose agar medium (Difco™), at 25° C., in the dark.

[3] = Growth of nine-week-old carrots in soil with skopobiota-loaded bentochar, with or without Blad spray; assay type: in vivo, carrot cv Nantes
Procedure: as §1
Nine weeks after sowing, carrots were examined for three parameters: (1) above-ground growth, (2) number of fully unfolded leaves, and (3) presence of necrotic lesions or browning in roots.
as §2
The same parameters described in ‘Effects on the growth of nine-week-old carrots’ were assessed.

[4] = With Blad, weekly spray on leaves, 2 mL Blad per L of water

In the case of `[Cl-].[Cu+2].[Cu+2].[OH-].[OH-].[OH-]` [copper, copper oxychloride], the “contamination of PDA Petri dishes containing the fungicide” value (external fungi) is reported as “to a minor extent”, the “fungi re-isolated in vitro from the treated wood” value (P. chlamydospora) is reported as “nothing but P. chlamydospora could be re-isolated” and the “brown streaking of artificially infected shoots” value (P. chlamydospora; fresh pruning wounds brushed with 50 μl, then P. chlamydospora spores) is reported as “darker brown streaking”.

With `O=C(O)c1ccccc1O` [salicylic acid, reference compound] the root lesion severity (P. cinnamomi) was “lower than the inoculated control”.

In the case of “potassium phosphonate [reference compound]”, the root lesion severity (P. cinnamomi) is reported as “lower than the inoculated control”.

B1: Blad: 173-residue polypeptide (SEQ ID NO: 4), residues 109-281 of Lupinus β-conglutin precursor; main subunit of the 210 kDa oligomer BCO (protein)
chain: ARGARGGLNARGASNPRTYRHISPHESERSERGLNARGPHEGLNTHRLETYRLYSASNARGASNGLYLYSILEARGVALLEGLARGPHEASPGLNARGTHRASNARGLEGLASNLEGLNASNTYRARGILEVALGLPHEGLNSERLYSPRASNTHRLEILELEPRLYSHISSERASPALAASPTYRVALLEVALVALLEASNGLYARGALATHRILETHRILEVALASNPRASPARGARGGLNALATYRASNLEGLTYRGLYASPALALEARGILEPRALAGLYSERTHRSERTYRILELEASNPRASPASPASNGLNLYSLEARGVALVALLYSLEALAILEPRILEASNASNPRGLYTYRPHETYRASPPHETYRPRSERSERTHRLYSASPGLNGLNSERTYRPHESERGLYPHESERARGASNTHRLEGLALATHRPHEASNTHRARGTYRGLGLILEGLNARGILEILELEGLYASNGLASP
For B1, the “fungi re-isolated in vitro from the treated wood” value (P. chlamydospora) was “many other endophytes”, the “root lesion severity versus non-inoculated control” value (P. cinnamomi) was “did not differ significantly from the non-inoculated control” and the root lesion severity (P. cinnamomi) was “only treatment producing excellent results on the infection levels; also recorded: lower than the inoculated control”. The root lesion severity (P. cinnamomi; listed as BLAD) was “lowest lesion severity”, the “early growth several months after pruning” value [1] was “boost observed in the early growth” and the “Total score of root symptoms” value (Trichoderma gamsii; With Blad, weekly spray, 2 mL Blad per L of water) was 2. For the same molecule, the “root symptomatology compared with the positive control” value (Trichoderma gamsii; in words) was “strongly reduced the development of root symptoms”, the “changes in the grapevine wood mycobiome” value (grapevine wood mycobiome) was “created a different network of interactions in the wood mycobiome; also recorded: induced marked changes in the grapevine wood mycobiome” and the “relative abundances (%) of P. chlamydospora” value ([2]; NO-INOCULATION, potted rooted grapevine cuttings, greenhouse) was 3.78%. The “relative abundances (%) of P. chlamydospora” value ([2]; inoculated with P. chlamydospora + skopobiota at separate locations in the trunk) was 1.34%, the “relative abundances (%) of P. chlamydospora” value ([2]; inoculated with P. chlamydospora alone) was 6.31% and the “relative abundance of P. chlamydospora” value ([2]; potted vines co-inoculated with P. chlamydospora and a skopobiota (four fungal species)) was 1%. For the same molecule, the “relative abundance of the inoculated pathogen” value ([2]; potted vines inoculated with P. chlamydospora and sprayed) was 6%, the “Above-ground growth (% of control) Mean ± SD” value [3, 4] was 98% ± % of control and the “Number of leaves (% of control) Mean ± SD” value [3, 4] was 108% ± % of control. The “number of leaves of carrots” value ([3]; in words, compared with treatments without Blad) was “increases the overall number of leaves” and the “above-ground growth of carrots” value ([3]; in words, weekly spray with Blad) was “positively affected”.
